Data taken from the supplement of paper PMC9732359.
± gives the uncertainty stated by the source.

Experiment: protein stability index of a GFP-peptide fusion (yeast GPS) (PSI 1-4); higher = more stable; sorted into four equal gates, so the index is relative within each strain
Method in brief: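 Peptides tiling yeast proteins in 17-residue segments were fused downstream of GFP, with Cherry expressed from the same plasmid. As a pooled library in yeast, mid-log cultures grown in leucine-free medium were sorted into four equal gates by GFP/Cherry fluorescence ratio. Gate plasmids were PCR-amplified and Illumina-sequenced, and barcodes linked reads to strains. Each peptide received a protein stability index equal to the sum of each gate's read frequency times its gate number.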

Row | Sequence | protein stability index (doa10∆) | protein stability index (pdr5∆) | protein stability index (san1∆) | protein stability index (ubr1∆)
1 | ILFELYKIKGRNNSKSV [SRP72] | 2.04 ± 0.068 | 1.92 ± 0.061 | 2.75 ± 0.069 | 1.76 ± 0.062
2 | VQFGLNEETFTVPELEI [ARP9] | 3.17 ± 0.076 | 3.02 ± 0.096 | 2.78 ± 0.11 | 3.19 ± 0.082
3 | TKSPAYPMMHQVRNQVF [RGR1] | 1.78 ± 0.047 | 1.88 ± 0.054 | 1.8 ± 0.077 | 2.23 ± 0.047
4 | VSVIAPESQGQHEQQKQ [YMR153W/NUP53] | 2.92 ± 0.085 | 3.15 ± 0.097 | 2.91 ± 0.068 | 2.94 ± 0.068
5 | PITASMAAALPNPTPSM [PGD1] | 2.47 ± 0.083 | 2.54 ± 0.066 | 2.55 ± 0.073 | 2.51 ± 0.067
6 | TRDEKDPKRLFEGNALI [RPS9A] | 3.55 ± 0.2 | 3.6 ± 0.12 | 2.97 ± 0.18 | 3.71 ± 0.15
7 | AFSPLTTTRIQSQQAQP [MED2] | 2.7 ± 0.055 | 2.83 ± 0.044 | 2.52 ± 0.061 | 2.8 ± 0.036
8 | LLKGPASTVAKTAPIQE [YOR098C/NUP1] | 2.52 ± 0.1 | 2.46 ± 0.094 | 1.91 ± 0.18 | 2.87 ± 0.071
9 | SLADNEIALKGLESLLN [YCS4] | 2.81 ± 0.056 | 2.5 ± 0.067 | 2.68 ± 0.075 | 2.94 ± 0.073
10 | PIEVDEELLQLFLNNFV [IRR1] | 2.93 ± 0.063 | 2.86 ± 0.071 | 2.97 ± 0.054 | 3.18 ± 0.058
11 | IEIDYTVRVDKASTYGE [SNF12] | 1.68 ± 0.08 | 1.41 ± 0.067 | 1.53 ± 0.16 | 1.39 ± 0.04
12 | SFNVKENQPFHGIKDIP [AAR2] | 2.73 ± 0.16 | 3.17 ± 0.19 | 2.98 ± 0.11 | 2.34 ± 0.21
13 | FRAVGEGNAQLVAIFGG [FAS1] | 1.17 ± 0.043 | 1.55 ± 0.063 | 1.51 ± 0.1 | 1.36 ± 0.055
14 | RDLILKKGEYARFKSKD [SMC3] | 2.81 ± 0.17 | 2.72 ± 0.18 | 2.65 ± 0.21 | 2.77 ± 0.076
15 | DSESESGDKEATAPLIQ [RPN8] | 3.44 ± 0.19 | 3.44 ± 0.12 | 3.28 ± 0.093 | 3.49 ± 0.28
16 | VRIMKAKRNLPHTTLVN [CDC53] | 1.9 ± 0.093 | 2.23 ± 0.07 | 1.53 ± 0.16 | 1.77 ± 0.072
17 | RKIGISIDDHPYNLNLF [RPC31] | 1.75 ± 0.043 | 2.04 ± 0.05 | 1.71 ± 0.098 | 1.9 ± 0.044
18 | IKQDIPIVIIFRALGII [RPB2] | 1.61 ± 0.05 | 1.33 ± 0.037 | 1.48 ± 0.077 | 1.49 ± 0.039
19 | AQADKQDISSSTRVEFE [FAS2] | 3.12 ± 0.081 | 3.17 ± 0.068 | 3.08 ± 0.06 | 3.33 ± 0.055
20 | YLKAFDKNKLLLLAAQI [SSN2] | 1.32 ± 0.061 | 1.37 ± 0.052 | 1.36 ± 0.085 | 1.42 ± 0.045
21 | EKFDLERVTALKNCKIS [SMC1] | 3.44 ± 0.2 |  | 3.38 ± 0.11 | 
22 | VGRLASVVAKQLLNGQK [RPL16A] |  | 1.89 ± 0.3 | 2.99 ± 0.13 | 1.67 ± 0.2
23 | TEDIREGDQAEVIFSFE [YMR129W/POM152] | 3.47 ± 0.087 | 3.39 ± 0.072 | 3.19 ± 0.066 | 3.44 ± 0.071
24 | RESTKALTRGEALLVVL [RPS12] |  | 3.49 ± 0.16 |  | 3.4 ± 0.045
25 | LRYVKQIEGPFLIIVPK [ISW2] | 2.15 ± 0.081 | 2.3 ± 0.059 | 2.29 ± 0.065 | 2.34 ± 0.045
26 | YPKLTLDFQTNKRLCDE [RPS17A] | 3.11 ± 0.073 | 3.06 ± 0.064 | 3.06 ± 0.044 | 3.23 ± 0.059
27 | PLSNIKALLFFNNEKET [RPN12] | 1.46 ± 0.056 | 1.4 ± 0.062 | 1.2 ± 0.088 | 1.13 ± 0.053
28 | LNLLNYQELFIQPKNSD [YML103C/NUP188] | 2.57 ± 0.06 | 2.21 ± 0.056 | 2.35 ± 0.054 | 2.3 ± 0.045

Row | Sequence | protein stability index (doa10∆) | protein stability index (pdr5∆) | protein stability index (san1∆) | protein stability index (ubr1∆)
29 | KEPKKLLPNSKNVENTK [DSN1] | 3.12 ± 0.17 | 2.74 ± 0.15 | 2.59 ± 0.14 | 3.21 ± 0.083
30 | MSMSSTVIKFRAGVCEY [RPN13] |  | 2.58 ± 0.18 | 2.22 ± 0.13 | 
31 | PINGNEAESQWYIEKVI [CSI1] | 2.47 ± 0.081 | 2.88 ± 0.078 | 3.09 ± 0.1 | 2.93 ± 0.18
32 | THSQTGTQQSNMYTSTQ [SIR4] | 3.03 ± 0.061 | 3.16 ± 0.046 | 2.93 ± 0.051 | 3.08 ± 0.055
33 | VQARDNSQVFGVARIYA [RPS14B] | 2.39 ± 0.074 | 2.3 ± 0.054 | 2.78 ± 0.047 | 2.91 ± 0.059
34 | FENVKLLAEYDNIYRNL [MED4] | 2.43 ± 0.052 | 2.64 ± 0.045 | 2.62 ± 0.071 | 2.31 ± 0.028
35 | LIELKSDLLVAPPLENE [YML103C/NUP188] | 2.41 ± 0.046 | 2.18 ± 0.052 | 2.31 ± 0.077 | 2.19 ± 0.05
36 | QHLQFNGSSDASSLRFG [YDL088C/ASM4] | 2.24 ± 0.055 | 2.3 ± 0.049 | 1.99 ± 0.076 | 1.83 ± 0.038
37 | EKLSSEIENLDKELRKT [YIL149C/MLP2] | 3.12 ± 0.11 | 3.21 ± 0.12 | 3.12 ± 0.069 | 3 ± 0.11
38 | NSDLEGKIRGVEDDLVT [SMC2] | 3.14 ± 0.094 | 3.33 ± 0.064 | 3.15 ± 0.067 | 3.24 ± 0.051
39 | ENGERKLYDAKRYTSEG [YMR129W/POM152] | 3.35 ± 0.12 | 2.92 ± 0.1 | 2.96 ± 0.1 | 3.29 ± 0.085
40 | VIKTLTVDVSSPTENGV [RPL22B] | 2.3 ± 0.14 | 2.55 ± 0.089 | 2.32 ± 0.13 | 2.83 ± 0.064
41 | SMHLLKDWTDTFVYILE [SRB8] | 3.06 ± 0.057 | 2.95 ± 0.06 | 2.88 ± 0.047 | 2.97 ± 0.059
42 | EIAFHLTLIFYDVLHDV [YML103C/NUP188] | 1.26 ± 0.072 | 1.47 ± 0.055 | 1.63 ± 0.17 | 1.99 ± 0.086
43 | NQNSDMKKKLELISYRN [SRB8] | 2.91 ± 0.048 | 3.04 ± 0.059 | 2.93 ± 0.051 | 3.08 ± 0.04
44 | TSLPDWCQEAFPSSETT [BRR2] | 2.93 ± 0.075 | 3.08 ± 0.099 | 3.25 ± 0.072 | 3.01 ± 0.15
45 | HEDEKLIPTIFRYITTW [PRP8] | 2.6 ± 0.06 | 2.25 ± 0.048 | 1.9 ± 0.051 | 2.23 ± 0.033
46 | VLRRLLAKYRDAGKIDK [RPL19A] | 3.29 ± 0.18 | 3.37 ± 0.15 |  | 3.61 ± 0.093
47 | VINIAKAHPNFPIALQW [FAS1] | 2.82 ± 0.1 | 2.88 ± 0.086 | 2.25 ± 0.091 | 2.23 ± 0.076
48 | ANLVNKESDLLEETRTT [BRN1] | 3.06 ± 0.18 | 3.51 ± 0.17 | 3.31 ± 0.098 | 3.26 ± 0.077
49 | VLRPFLLRRLKKDVEKE [SNF2] | 2.8 ± 0.13 | 3.16 ± 0.19 |  | 3.11 ± 0.12
50 | FRSYMDQEKKYGMSITE [RPB2] | 1.69 ± 0.054 | 2.43 ± 0.063 | 2.89 ± 0.065 | 2.75 ± 0.032
51 | EESSTGKSTADVKSSDS [YJL041W/NSP1] |  | 3.35 ± 0.19 |  | 
52 | PDSCNMQEKAAHIAKNL [YCS4] | 2.15 ± 0.15 | 1.55 ± 0.2 |  | 1.47 ± 0.093
53 | GKGTGKTAMAELALLNH [BRR2] | 3.19 ± 0.11 | 3.51 ± 0.15 | 3.45 ± 0.099 | 3.22 ± 0.082
54 | NHFKDTYGFSILDIVIN [FAS1] | 3.41 ± 0.12 | 3.28 ± 0.11 | 3.33 ± 0.091 | 3.29 ± 0.088
55 | AFPHLYNSRPRSVRIPW [PRP8] | 2.94 ± 0.1 | 2.45 ± 0.084 | 1.7 ± 0.13 | 2.59 ± 0.066
